Assay results as given in PMC3074123.

Key:
EndA(H160G/R209A/K210A) = EndA(H160G/R209A/K210A) (Streptococcus pneumoniae, UniProt P0A3S3 31-274, H160G;R209A;K210A); assay: EMSA
EndA(H160G/R127A/K128A) = EndA(H160G/R127A/K128A) (Streptococcus pneumoniae, UniProt P0A3S3 31-274, H160G;R127A;K128A); assay: EMSA

B1: 24 bp duplex (dsDNA)
DNA 1: GCAAGGTGCGTGCAGCCTTGGACC
DNA 2: GGTCCAAGGCTGCACGCACCTTGC
binding result (EndA(H160G/R209A/K210A)): no binding
binding result (EndA(H160G/R127A/K128A)): no binding
